Source: patent US20150125397A1, “DUAL SPECIFIC BINDING PROTEINS DIRECTED AGAINST IMMUNE CELL RECEPTORS AND AUTOANTIGENS” (ABBVIE INC., priority 2013, published 2015)

T1: mIgM (Mus musculus, UniProt P01872)
T1 sequence (P01872 1-454): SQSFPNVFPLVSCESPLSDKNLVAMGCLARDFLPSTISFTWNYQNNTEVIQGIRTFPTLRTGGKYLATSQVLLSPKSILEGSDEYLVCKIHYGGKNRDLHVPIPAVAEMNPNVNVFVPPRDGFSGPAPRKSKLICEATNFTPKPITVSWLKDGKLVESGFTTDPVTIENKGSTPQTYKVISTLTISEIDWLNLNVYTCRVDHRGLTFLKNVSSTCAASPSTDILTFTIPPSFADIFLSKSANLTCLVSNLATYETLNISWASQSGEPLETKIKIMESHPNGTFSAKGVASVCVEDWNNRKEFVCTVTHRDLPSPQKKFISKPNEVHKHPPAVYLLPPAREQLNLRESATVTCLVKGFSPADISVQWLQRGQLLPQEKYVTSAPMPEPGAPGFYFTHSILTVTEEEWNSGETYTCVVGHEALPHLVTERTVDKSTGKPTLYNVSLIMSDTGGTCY


Key:
[1] = target: T1, mIgM; test: IgM binding ELISA (mouse IgM); conditions: mIgM-coated ELISA; half-log dilution 10 μg/ml-0.01 μg/ml
Procedure: Reactivity of the DVD-Ig proteins with mIgM was determined by enzyme-linked immunosorbent assay (ELISA). Briefly, each well of an Ultra Cruz 96 well microtiter plate (Santa Cruz Biotechnology, Dallas, Tex.) was coated with mIgM at a concentration of 1 μg/ml in 100 μl of PBS. The plate was covered in plastic wrap and incubated overnight at 4° C. Each well of the plate was then washed 3× with 300 μl of PBST. After the final wash, 200 μl of blocking buffer (1% BSA in PBS) was added to each well and the plate incubated at RT for 2 hours. The plate was then washed as above. Rows B-H of the microtiter plate were filled with 100 μl of dilution buffer (1% BSA in PBST). The DVD-Ig proteins were then diluted to […] in dilution buffer and 147 μl of a DVD-Ig protein was added in duplicate to row A of a 96 well plate. For a ½ log dilution, 47 μl was transferred from row A to row B. The pipette tips were replaced with clean tips and 47 μl from row B was transferred to row C. The serial transfers were repeated as above until row G. To assess the binding of the secondary detection reagent to the coated IgM, the final transfer 47 μl was only transferred from G1-G10 to H1-H10 and wells H11 and H12 were left containing 100 μl of dilution buffer. To maintain a 100 μl assay volume, 47 μl was removed from wells H1-H10 and G11-G12 and discarded. After the serial dilution was completed, the plate was incubated for 1-2 hours at RT. The plate was washed as above and then 100 μl of horseradish peroxidase conjugated goat α-hIgG Fc specific, diluted 1:3,000 in dilution buffer, was added to each well. The plate was incubated for 1 hour at RT and then washed 4× as above. The plate was developed by adding 100 μl of 3′,3′,5′,5′-Tetramethylbenzidine (TMB) substrate solution to each well and incubating the plate in the dark for 10-15 minutes. The enzymatic reaction was stopped by adding 100 μl of 1M H2SO4 to each well. The plate was read at 450 nm on an EnVision 2102 multilabel reader (Perkin Elmer, Waltham, Mass.).
DVD-Ig proteins DVD3751-DVD3760 were characterized by IgM binding assay at half-log dilution starting at 10 μg/ml-0.01 μg/ml according to the method of Example 2.5.
IgM binding ELISA: Titrations of the DVD-Ig™ proteins (10 μg/ml to 0.01 μg/ml) were added to ELISA plates coated with murine IgM. Bound antibody was detected with biotinylated anti-human IgG and streptavidin-HRP. EC50 were calculated from the titration curve using Prism6.

[2] = test system: DNA; test: Antinuclear antibody (ANA) test; assay type: binding; parameters: key to ANA score, relative result: (X)-(XXX) indicates relative results; (XX): (X)-(XXX) indicates relative results; (X)-(XXX) indicates relative results; conditions: for ANA score / ANA score, relative result: ANA staining at 10 μg/ml; for level of ANA staining: 10 μg/ml, among DVD3751-DVD3760
Procedure: The cloned BWR4 and PA4 antibodies as well as the DVD-Ig proteins were tested for ANA reactivity using the ANA test kit. Briefly, the DVD-Ig proteins and antibodies were diluted to […] in blocking buffer (1% BSA in PBS). The DVD-Ig proteins and antibodies were added to separate wells of an ANA slide at 50 μl/well and incubated in a moist chamber for 2 hours at room temperature (RT). The wells were then washed 3× with PBS. To detect bound antibodies, Alexa Fluor 488 conjugated goat α-human IgG (α-hIgG) was then added at a dilution of 1:1,000 and the slide incubated in a moist chamber for 1 hour. Unbound detecting antibody was removed by immersing the slide in a jar containing PBS and incubating for 10 minutes at RT with gentle rocking. The prior step was repeated 2× and 10 μl of Prolong® Gold Antifade was added to each well and a 24 mm×60 mm #1 cover glass seated on top. The covered slide was incubated overnight at RT and then sealed by applying clear nail polish to the edges. Binding of the DVD-Ig proteins and antibodies to the slides was assessed by fluorescence microscopy.
DVD-Ig proteins DVD3751-DVD3760 were characterized by antinuclear antibody (ANA) staining at 10 μg/ml according to the method of Example 2.4.
ANA: HEp-2 human tissue culture substrate slides were incubated with 5 μg/ml of the anti-DNA-IgG2a or the DVD-Ig™ binding protein for 2 hours at RT. The slides were washed and bound antibodies were detected with Alexa-488 goat anti-human antibody or DyLight 488 goat anti-mouse antibody.

[3] = test system: AM14 WT B cells; test: [3H]thymidine incorporation, BCR/TLR9 stimulation of AM14 WT B cells; assay type: cell-based, mouse; parameters: key to 3H incorporation AM14 WT, relative result: (X)-(XXX) indicates relative results; (XX): (X)-(XXX) indicates relative results; (X)-(XXX) indicates relative results; level of 3H incorporation / 3H incorporation AM14 WT: dose or concentration left out as unconfirmed; conditions: for 3H incorporation AM14 WT: 24 hours, then 6 hours pulse
Description: (§1) The AM14 B cell receptor (BCR) transgenic mouse has been described previously (Sweet et al. (2010) Autoimmun 43(8): 607-18). Briefly, AM14 is a BCR comprising the AM14 heavy chain and the Vk8 light chain that recognizes murine IgG2a (mIgG2a) of the “a” allotype. Between 95-98% of B cells in a mouse positive for the AM14 heavy chain and Vk8 light chain express the AM14 BCR. To generate AM14 B cells that are deficient in TLR9, TLR7 or FcγRIIB, the AM14 and Vk8 genes were bred to the appropriate knock out mice.
(§2) Primary murine B cells were purified by positive selection using BD Imag™ CD45R/B220 magnetic particles (BD Biosciences, San Jose, Calif.). Briefly, B cells were cultured in RPMI containing, pencillin-streptomycin, β-mercaptoethanol, and 5% heat-inactivated fetal calf serum (FCS) in 96 well flat bottom plates at a density of 4×10^5 cells/well. For stimulation through the BCR and TLR9, B cells were treated with a titration of 0.3 μg/ml-0.03 μg/ml of PA4 or 5 μg/ml to 0.15 μg/ml of a DVD-Ig protein (DVD3751, DVD3752, DVD3754, DVD3755, DVD3759 and DVD3760), unless otherwise noted. Cells were also treated with 1 μg/ml 1826, an experimental ligand for TLR9, as a control. After 24 hours, the cells were pulsed for 6 hours with [3H]thymidine (Perkin Elmer, Waltham Mass.). Incorporation of [3H]thymidine was quantified via a liquid scintillation beta counter (Trilux 1450 MicroBeta, PerkinElmer) according to standard methods.
(§3) DVD-Ig proteins DVD3751-DVD3760 were characterized by ^3H incorporation at […] according to the method of Example 2.6.

[4] = test system: AM14 TLR9−/− B cells; test: [3H]thymidine incorporation, BCR/TLR9 stimulation of AM14 TLR9-/- B cells; assay type: cell-based, mouse; conditions: at 5 mg/ml; 24 hours, then 6 hours pulse
Description: as §1, §2, §3

[5] = target: Human IgM (Homo sapiens, UniProt P01871); test: IgM binding assay (human IgM)
Human IgM, sequence (P01871 1-433 limits assumed): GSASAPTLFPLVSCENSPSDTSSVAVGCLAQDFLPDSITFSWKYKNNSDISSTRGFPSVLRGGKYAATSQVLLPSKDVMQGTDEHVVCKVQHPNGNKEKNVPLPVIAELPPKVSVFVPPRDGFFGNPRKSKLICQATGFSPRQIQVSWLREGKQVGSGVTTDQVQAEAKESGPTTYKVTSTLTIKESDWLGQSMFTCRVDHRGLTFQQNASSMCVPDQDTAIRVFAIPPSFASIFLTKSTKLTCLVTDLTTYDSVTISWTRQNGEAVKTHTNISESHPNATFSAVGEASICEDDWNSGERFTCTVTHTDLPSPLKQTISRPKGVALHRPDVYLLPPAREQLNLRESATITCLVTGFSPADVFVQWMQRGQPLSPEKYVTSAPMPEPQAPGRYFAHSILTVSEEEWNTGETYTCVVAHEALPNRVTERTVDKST
Human IgM, sequence (P01591 23-159 partner): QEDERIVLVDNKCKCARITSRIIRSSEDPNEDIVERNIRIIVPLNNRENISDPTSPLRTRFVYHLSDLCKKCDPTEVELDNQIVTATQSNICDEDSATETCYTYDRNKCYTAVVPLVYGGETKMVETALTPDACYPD

| IgM Binding EC50 [1] [mg/L] | potency in human IgM binding assay [5] | Molecule | ANA score [2] | ANA score, relative result [2] | 3H incorporation AM14 WT, relative result [3] | 3H incorporation AM14 WT [3] | level of 3H incorporation ([3]; among DVD3751-DVD3760) | 3H incorporation AM14 TLR9−/− [4] | level of ANA staining [2] |
| --- | --- | --- | --- | --- | --- | --- | --- | --- | --- |
|  | highest potency | DVD3766: DVD-Ig: VD1 hIgM (HB-57.3), GS linker, VD2 DNA (PA4); heavy SEQ ID NO 76, light 77 (antibody) heavy: QVQLQQPGAEFVKPGAPVKLSCKASGYPFTTYWVNWMKQRPGRGLEWIGRIDPYDSETLYNQKFKDKATLTVDKSSSTAYIQLSSLTSEDSAVYYCARETYDYPFAYWGQGTLVTVSSGGGGSGGGGSEVQLVESGGGLVKPGGSLKLSCVASGFTFSTYAMSWVRQTPTKRLEWVATISRGGVSTYYPDTVKGRFTISRDNAKNTLYLQMSSLRSEDTAMYYCARPPTIVTTWFAYWGQGTLVTVSS light: DIVMTQSPSSLAMSVGQKVTMSCKSSQSLLNSSNQKNYLAWYQQKPGQSPELLVYFASTRESGVPDRFIGSGSGTDFTLTISSVQAEDLADYFCQQHYSTPFTFGSETKLEIKRGGSGGGGSGDVVMTQTPLSLPVSLGDQASISCRSSQSLVHSNGNTYLHWYLQKPGQSPKLLIYKVSNRFSGVPDRFSGSGSGTDFTLKISRVEAEDLGAYFCSQSTHVPYTFGGPTRLEIKR |  |  |  |  |  |  |  |
| 0.09709 |  | DVD3755: DVD-Ig: VD1 DNA(PA4), LS linker, VD2 mIgM (B7.6); heavy SEQ ID NO 56, light 57 (antibody) heavy: EVQLVESGGGLVKPGGSLKLSCVASGFTFSTYAMSWVRQTPTKRLEWVATISRGGVSTYYPDTVKGRFTISRDNAKNTLYLQMSSLRSEDTAMYYCARPPTIVTTWFAYWGQGTLVTVSSASTKGPSVFPLAPQVQLKESGPGLVKPSLTLSLTCTVSGFSLNGYGVIWVRQPPGKGLEWMGVIWGNGNTNYNSTLKSRLSISRDTSKSQVFLKMNNLQTEDTAMYFCARSENYYSSPGYFAYWGQGTLVTVSS light: DVVMTQTPLSLPVSLGDQASISCRSSQSLVHSNGNTYLHWYLQKPGQSPKLLIYKVSNRFSGVPDRFSGSGSGTDFTLKISRVEAEDLGAYFCSQSTHVPYTFGGPTRLEIKRTVAAPNTVMTQSPTSMFISVGDRVTMNCKASQNVGSDVDWYQQKTGQSPKLLISGTSNRYTGVPDRFTGSGSGTDFTLTISNMQAEDLAVYYCLQYNYNPTFGAGTKLELKR | 4.5 | (XXX) | (X) | (8498) |  | (402) | highest level of staining |

The next lines start with the molecule.

| Molecule | IgM Binding EC50 [1] [mg/L] | potency in human IgM binding assay [5] | ANA score [2] | ANA score, relative result [2] | 3H incorporation AM14 WT, relative result [3] | 3H incorporation AM14 WT [3] | level of 3H incorporation ([3]; among DVD3751-DVD3760) | 3H incorporation AM14 TLR9−/− [4] | level of ANA staining [2] |
| --- | --- | --- | --- | --- | --- | --- | --- | --- | --- |
| DVD3751: DVD-Ig: VD1 DNA(PA4), GS linker, VD2 mIgM (B7.6); heavy SEQ ID NO 48, light 49 (antibody) heavy: EVQLVESGGGLVKPGGSLKLSCVASGFTFSTYAMSWVRQTPTKRLEWVATISRGGVSTYYPDTVKGRFTISRDNAKNTLYLQMSSLRSEDTAMYYCARPPTIVTTWFAYWGQGTLVTVSSGGGGSGGGGSQVQLKESGPGLVKPSLTLSLTCTVSGFSLNGYGVIWVRQPPGKGLEWMGVIWGNGNTNYNSTLKSRLSISRDTSKSQVFLKMNNLQTEDTAMYFCARSENYYSSPGYFAYWGQGTLVTVSS light: DVVMTQTPLSLPVSLGDQASISCRSSQSLVHSNGNTYLHWYLQKPGQSPKLLIYKVSNRFSGVPDRFSGSGSGTDFTLKISRVEAEDLGAYFCSQSTHVPYTFGGPTRLEIKRGGSGGGGSGNTVMTQSPTSMFISVGDRVTMNCKASQNVGSDVDWYQQKTGQSPKLLISGTSNRYTGVPDRFTGSGSGTDFTLTISNMQAEDLAVYYCLQYNYNPTFGAGTKLELKR | 0.1909 |  | 2 | (X) | (XXX) | (35554) | highest level of ^3H incorporation | (1184) |  |
| DVD3752: DVD-Ig: VD1 DNA(PA4), SS linker, VD2 mIgM (B7.6); heavy SEQ ID NO 50, light 51 (antibody) heavy: EVQLVESGGGLVKPGGSLKLSCVASGFTFSTYAMSWVRQTPTKRLEWVATISRGGVSTYYPDTVKGRFTISRDNAKNTLYLQMSSLRSEDTAMYYCARPPTIVTTWFAYWGQGTLVTVSSASTKGPQVQLKESGPGLVKPSLTLSLTCTVSGFSLNGYGVIWVRQPPGKGLEWMGVIWGNGNTNYNSTLKSRLSISRDTSKSQVFLKMNNLQTEDTAMYFCARSENYYSSPGYFAYWGQGTLVTVSS light: DVVMTQTPLSLPVSLGDQASISCRSSQSLVHSNGNTYLHWYLQKPGQSPKLLIYKVSNRFSGVPDRFSGSGSGTDFTLKISRVEAEDLGAYFCSQSTHVPYTFGGPTRLEIKRTVAAPNTVMTQSPTSMFISVGDRVTMNCKASQNVGSDVDWYQQKTGQSPKLLISGTSNRYTGVPDRFTGSGSGTDFTLTISNMQAEDLAVYYCLQYNYNPTFGAGTKLELKR | 0.205 |  | 4 | (XXX) | (XX) | (12682) |  | (512) | highest level of staining |
